Positions count from the first letter of the chain named. Names may count otherwise. Values belong to the molecule of their own block, whether it stands above or below them.
Columns and labels:
Experiment in all cases: NADH oxidation followed at A340
[1] = target: T1, SyDdh (GST-SyDdh) (Synechocystis sp. PCC 6803, UniProt P74586, S234G); assay type: biochemical; details: pH 7.5, 30 °C, 0.1 mM NADH, no Mg2+; substrate inhibition
T1 construct: gene ddh; Full ddh ORF, GST-tagged (tag kept, pGEX5X-1), expressed in E. coli DH5alpha, glutathione-Sepharose purified
Excerpt: (§1) NADH oxidation followed at A340 on SyDdh (GST-SyDdh)

[2] = target: T2, SyDdh (GST-SyDdh) (Synechocystis sp. PCC 6803, UniProt P74586); assay type: biochemical; details: pH 7.5, 30 °C, 0.1 mM NADH, no Mg2+; substrate inhibition
T2 construct: gene ddh; Full ddh ORF, GST-tagged (tag kept, pGEX5X-1), expressed in E. coli DH5alpha, glutathione-Sepharose purified
T2 sequence (P74586 1-333): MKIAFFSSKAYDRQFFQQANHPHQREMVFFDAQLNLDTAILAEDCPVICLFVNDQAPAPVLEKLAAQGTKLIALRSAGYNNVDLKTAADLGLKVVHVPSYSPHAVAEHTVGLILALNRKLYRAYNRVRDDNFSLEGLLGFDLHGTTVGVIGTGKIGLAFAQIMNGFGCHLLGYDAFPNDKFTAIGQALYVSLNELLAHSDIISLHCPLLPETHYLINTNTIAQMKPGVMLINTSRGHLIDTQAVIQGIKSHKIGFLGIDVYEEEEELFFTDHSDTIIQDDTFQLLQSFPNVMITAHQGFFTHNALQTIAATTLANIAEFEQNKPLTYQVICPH
Excerpt: as §1

[3] = target: T2, SyDdh (GST-SyDdh); assay type: biochemical; details: for remaining activity at 2500 µM: read-out: % residual activity at 2.5 mM
[4] = target: T3, SyDdh (GST-SyDdh) (Synechocystis sp. PCC 6803, UniProt P74586, Q14E); assay type: biochemical; details: pH 7.5, 30 °C, 0.1 mM NADH, no Mg2+; substrate inhibition
T3 construct: gene ddh; Full ddh ORF, GST-tagged (tag kept, pGEX5X-1), expressed in E. coli DH5alpha, glutathione-Sepharose purified
Excerpt: as §1

[5] = substrate: NC(=O)C1=CN([C@@H]2O[C@H](COP(=O)(O)OP(=O)(O)OC[C@H]3O[C@@H](n4cnc5c(N)ncnc54)[C@H](O)[C@@H]3O)[C@@H](O)[C@H]2O)C=CC1; assay type: biochemical, Synechocystis sp. PCC 6803; details: pH 7.5, 30 °C, varied: cofactor
[6] = substrate: CC(=O)C(=O)O; assay type: biochemical, Synechocystis sp. PCC 6803; details: pH 7.5, 30 °C, 0.1 mM NADH, no Mg2+, Hill coefficient 2.51
[7] = substrate: CC(=O)C(=O)O; assay type: biochemical, Synechocystis sp. PCC 6803; details: pH 7.5, 30 °C, 0.1 mM NADH, no Mg2+
Excerpt: as §1

[8] = substrate: O=C(O)CC(=O)C(=O)O; assay type: biochemical, Synechocystis sp. PCC 6803; details: pH 7.5, 30 °C, 0.1 mM NADH, no Mg2+
Excerpt: as §1

T1 sequence (P74586 entry or part of it S234G): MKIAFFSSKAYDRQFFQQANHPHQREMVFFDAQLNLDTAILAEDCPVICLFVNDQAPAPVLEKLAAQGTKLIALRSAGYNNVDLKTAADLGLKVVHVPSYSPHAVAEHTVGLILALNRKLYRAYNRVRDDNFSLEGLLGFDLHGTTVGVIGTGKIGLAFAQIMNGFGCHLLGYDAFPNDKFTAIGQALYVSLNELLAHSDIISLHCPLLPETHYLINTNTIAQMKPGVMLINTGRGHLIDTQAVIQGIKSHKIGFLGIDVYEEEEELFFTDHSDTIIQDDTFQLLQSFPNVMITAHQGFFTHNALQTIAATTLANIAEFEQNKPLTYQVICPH
T3 sequence (P74586 entry or part of it Q14E): as the sequence (P74586 entry or part of it S234G) above, with Q14E, G234S counted along it

K i [1]: 5.74 ± 1.04 mM
K i [2]: 8.56 ± 3.39 mM
Molecule: O=C(O)CC(=O)C(=O)O [oxaloacetate]

remaining activity at 2500 µM [3]: 72%
Molecule: Nc1ncnc2c1ncn2[C@@H]1O[C@H](COP(=O)(O)OP(=O)(O)OP(=O)(O)O)[C@@H](O)[C@H]1O [ATP]

K i [4]: 16.51 ± 5.98 mM
Molecule: CC(=O)C(=O)O [pyruvate]

activity at 2500 µM ([3]; read-out: % activity at 2.5 mM): 134%
Molecule: O=P(O)(O)OC[C@H]1OC(O)(COP(=O)(O)O)[C@@H](O)[C@@H]1O (some centres unmarked) [FBP]

remaining activity at 2500 µM [3]: 42%
Molecule: NC(=O)C(=O)O [oxamate]

B1: SyDdh (GST-SyDdh) (Synechocystis sp. PCC 6803 substr. Kazusa) (protein)
chain: T2 sequence (P74586 1-333)
notes: Full ddh ORF, GST-tagged (tag kept, pGEX5X-1), expressed in E. coli DH5alpha, glutathione-Sepharose purified
K0.5 [5]: 0.028 ± 0.002 mM
kcat [5]: 2.60 ± 0.25 s⁻¹
K0.5 [6]: 0.38 ± 0.04 mM
kcat [6]: 2.71 ± 0.26 s⁻¹
kcat/Km [6]: 7140 ± 1150 M⁻¹ s⁻¹

B2: SyDdh (GST-SyDdh) (Synechocystis sp. PCC 6803 substr. Kazusa; Q14E) (protein)
chain: T2 sequence (P74586 1-333) with Q14E
notes: as for B1
K0.5 ([7]; substrate-inhibition fit): 0.52 ± 0.10 mM
kcat ([7]; substrate-inhibition fit): 4.11 ± 0.71 s⁻¹
kcat/Km ([7]; substrate-inhibition fit): 7980 ± 350 M⁻¹ s⁻¹
K0.5 ([8]; Hill coefficient 0.95): 1.71 ± 0.38 mM
kcat ([8]; Hill coefficient 0.95): 2.38 ± 0.1 s⁻¹
kcat/Km ([8]; Hill coefficient 0.95): 1460 ± 310 M⁻¹ s⁻¹

B3: SyDdh (GST-SyDdh) (Synechocystis sp. PCC 6803 substr. Kazusa; S234G) (protein)
chain: T2 sequence (P74586 1-333) with S234G
notes: as for B1
K0.5 ([7]; Hill coefficient 1.64): 2.10 ± 0.18 mM
kcat ([7]; Hill coefficient 1.64): 1.71 ± 0.26 s⁻¹
kcat/Km ([7]; Hill coefficient 1.64): 820 ± 130 M⁻¹ s⁻¹
K0.5 ([8]; substrate-inhibition fit): 0.59 ± 0.05 mM
kcat ([8]; substrate-inhibition fit): 1.27 ± 0.24 s⁻¹
kcat/Km ([8]; substrate-inhibition fit): 2190 ± 520 M⁻¹ s⁻¹

— publication PMC5678113, “Substrate Specificity and Allosteric Regulation of a D-Lactate Dehydrogenase from a Unicellular Cyanobacterium are Altered by an Amino Acid Substitution” (Scientific Reports, 2017)
